Assay results published in paper PMC5462737.

Columns and labels:
[1] = molecular target: F1Fo ATP synthase from E. coli, labeled with ATTO 594 (E. coli) (UniProt P0ABB4)
[2] = molecular target: F1Fo ATP synthase from E. coli, labeled with ATTO 594 (E. coli) (UniProt P0ABB4); remark: listed apart in the source

Sequence of UniProt P0ABB4 (P0ABB4 whole entry, looked up): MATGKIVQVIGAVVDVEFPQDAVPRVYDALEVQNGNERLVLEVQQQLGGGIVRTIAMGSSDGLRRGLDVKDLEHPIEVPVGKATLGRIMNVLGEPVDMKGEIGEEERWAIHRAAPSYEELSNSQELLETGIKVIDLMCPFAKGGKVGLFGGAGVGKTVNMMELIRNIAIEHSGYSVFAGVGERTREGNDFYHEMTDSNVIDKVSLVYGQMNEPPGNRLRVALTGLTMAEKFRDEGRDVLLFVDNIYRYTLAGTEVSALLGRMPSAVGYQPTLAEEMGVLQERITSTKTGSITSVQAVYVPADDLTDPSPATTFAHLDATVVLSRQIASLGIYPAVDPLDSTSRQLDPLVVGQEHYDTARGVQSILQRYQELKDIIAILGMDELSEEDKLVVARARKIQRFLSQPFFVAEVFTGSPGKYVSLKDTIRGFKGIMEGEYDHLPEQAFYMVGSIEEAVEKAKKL

Substance	coupled activity (ATP-synthesis rate driven by proton pumping of cyt. bo3; luciferin/luciferase luminescence) in 100 nm DOPC vesicles, relative to unlabeled proteins [1] [fold]	normalized ATP-synthesis rate in 100 nm DOPC:DOPG vesicles, 0-40% DOPG, relative to 100% DOPC; value at 60% DOPC [2] [%]	coupled activity (ATP-synthesis rate driven by proton pumping of cyt. bo3) in 100 nm DOPC vesicles, increase relative to unlabeled proteins [1] [fold]
cytochrome bo3 (ubiquinol oxidase) from E. coli, labeled with ATTO 647N (complex)	5	60	–
cytochrome bo3 (ubiquinol oxidase) from E. coli, labeled with Abberior STAR 635 (complex)	–	–	< 2
